Tests used:
[1] = biological target: T1, human cellular inhibitor of apoptosis protein 1 (c-IAP1) (human, UniProt Q13490 1-618); assay: yeast two-hybrid
T1 construct: Tested in a yeast two-hybrid system; also called h c-IAP1
Description: (§1) A yeast two-hybrid system was used to determine how c-IAP1 and -2 interact with TNF-R2 and/or TRAFs. The following results were obtained indistinguishably for c-IAP1 and c-IAP2. […] However, a direct interaction could be detected between c-IAP1 and TRAF2. […] Consistently, c-IAP1 also interacted with TRAF1. […] Thus c-IAP1 and TNF-R2 bind to non-overlapping docking sites within the TRAF domain of TRAF2. […] Similarly, combinations of two of the three BIR motifs e.g. amino acid residues 46–99 and 204–249 of c-IAP1 and 29–82 and 189–234 of c-IAP2, separated by IAP1 derived intervening sequences of varying lengths are assayed for TRAF1 and TRAF2 binding. […] The RING finger domain of c-IAP1/2 (amino acids 571–618 of c-IAP1 and 557–604 of c-IAP2) is not required for interaction with TRAFs, but rather mediates subsequent steps in the c-IAP1/2 signaling cascade. Similarly, a variety of c-IAP1 derived N-terminal leader sequences fused to the c-IAP1 RING finger domain are used to assay signal transduction mediation.

[2] = biological target: T2, human cellular inhibitor of apoptosis protein 2 (c-IAP2) (human, UniProt Q13489 1-604); assay: yeast two-hybrid
T2 construct: The two-hybrid fusion partners are not described; also called h c-IAP2
T2 sequence (Q13489 whole entry, the tested form may be a part): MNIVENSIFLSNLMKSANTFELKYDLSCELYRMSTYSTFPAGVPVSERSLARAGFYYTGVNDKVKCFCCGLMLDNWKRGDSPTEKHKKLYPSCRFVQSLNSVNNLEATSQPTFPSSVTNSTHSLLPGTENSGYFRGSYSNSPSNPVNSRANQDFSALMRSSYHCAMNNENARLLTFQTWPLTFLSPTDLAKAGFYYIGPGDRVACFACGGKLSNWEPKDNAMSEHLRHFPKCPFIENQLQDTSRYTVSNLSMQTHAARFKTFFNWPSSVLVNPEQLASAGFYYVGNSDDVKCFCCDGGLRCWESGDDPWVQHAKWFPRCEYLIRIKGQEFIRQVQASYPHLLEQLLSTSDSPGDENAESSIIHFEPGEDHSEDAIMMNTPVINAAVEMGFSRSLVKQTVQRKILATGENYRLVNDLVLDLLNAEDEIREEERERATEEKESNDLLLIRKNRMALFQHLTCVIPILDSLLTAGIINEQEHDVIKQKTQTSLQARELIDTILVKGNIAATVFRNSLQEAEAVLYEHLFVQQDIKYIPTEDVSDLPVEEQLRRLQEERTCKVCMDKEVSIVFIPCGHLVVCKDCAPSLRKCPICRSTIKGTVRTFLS
Description: as §1

[3] = biological target: T3, c-IAP1 N-terminally tagged with a FLAG epitope peptide (Homo sapiens (Human), UniProt Q13490 1-618); assay: co-immunoprecipitation from transfected 293 cells (anti-TNF-R2 IP, anti-FLAG Western)
T3 construct: Expressed in human embryonic 293 cells from a pRK vector (CMV promoter); also called FLAG-tagged c-IAP1
T3 sequence (Q13490 whole entry): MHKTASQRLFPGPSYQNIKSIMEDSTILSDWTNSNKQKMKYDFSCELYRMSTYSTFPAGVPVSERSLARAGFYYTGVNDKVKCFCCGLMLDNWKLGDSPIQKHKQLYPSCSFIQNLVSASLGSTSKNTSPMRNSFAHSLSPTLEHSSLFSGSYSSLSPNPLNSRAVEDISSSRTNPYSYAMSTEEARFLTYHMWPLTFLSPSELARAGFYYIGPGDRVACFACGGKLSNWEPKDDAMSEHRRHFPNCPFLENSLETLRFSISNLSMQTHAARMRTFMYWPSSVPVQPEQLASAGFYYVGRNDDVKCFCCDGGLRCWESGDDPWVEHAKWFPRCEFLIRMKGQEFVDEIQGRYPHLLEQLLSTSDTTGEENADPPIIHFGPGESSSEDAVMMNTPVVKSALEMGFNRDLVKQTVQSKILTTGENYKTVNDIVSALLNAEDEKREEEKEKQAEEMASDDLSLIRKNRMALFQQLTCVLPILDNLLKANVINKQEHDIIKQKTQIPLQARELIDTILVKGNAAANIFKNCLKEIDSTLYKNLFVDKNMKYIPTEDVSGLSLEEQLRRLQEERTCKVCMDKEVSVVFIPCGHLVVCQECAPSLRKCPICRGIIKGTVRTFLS
Experimental: A transfection based co-immunoprecipitation assay was used to investigate how c-IAP1 interacts with the complex of TNF-R2 and TRAFs. In this system c-IAP1 was N-terminally tagged with a FLAG epitope peptide and expressed in human embryonic 293 cells under the control of a constitutive CMV promotor (pRK vector). The c-IAP1 expression vector was transiently co-transfected into 293 cells with expression vectors for TNF-R2 and TRAFs. After 24–36 h, the cells were harvested and extracts immunoprecipitated with anti-TNF-R2 antibodies, followed by Western analysis with anti-FLAG antibodies. […] Thus, c-IAP1 is a component of the TNF-R2 (CD40)/TRAF signaling complex.

T1 sequence (Q13490 whole entry): as above

binding result [1]: no binding
binding result [2]: no binding
binding result [3]: no binding
B1: TNF-R2 (receptor, UniProt P20333 288-461, looked up)
chain: KKKPLCLQREAKVPHLPADKARGTQGPEQQHLLITAPSSSSSSLESSASALDRRAPTRNQPQAPGVEASGAGEARASTGSSDSSPGGHGTQVNVTCIVNVCSSSDHSSQCSSQASSTMGDTDSSPSESPKDEQVPFSKEECAFRSQLETPETLLGSTEEKPLPLGVPDAGMKPS
notes: In the co-immunoprecipitation it was expressed from a vector in 293 cells
